Measurements taken from a protein production outcome set (Wang et al. 2014).

assay: label from the status in PepcDB records

Row | Sequence | protein production
1 | MHPDTTLILIAAASIVLLVLLVTRLKLHPFLALMVAAAFLGLASGLAPTDAVKTFQKGFGNILGSVGLVVGLGSMLGGLLLNTGGADRIANAFVGRGSTVWLPTSICAAALLIGMPHLFDVSFVMLVPLVFAIAKRTGSHLMRVGLPMAAGLYVSHGFLLPHPSPTLALAIYHGDAGRAILFGFLLAIPTAILSGPLLTSFAMRWFKDPIDITHSPIMTAAGRSDVTTLDNAPRLPVVLLTVLLPPGLMLLRTLLADHVPEGAARAFLDGIGNPIVSLAIAVLFAIWALGVRSGRSLGEIQKLLGKSLAPAAGVILIVGAGGGLKEMLLGTHIGDMIASGAAQWAISPLVLAWVIAALMRIAVGSATVATVTAAGLMAPVQALHPEISPELMTISVATGGLMLSHLNDSGFWLFKEYFQLTVAQTLKSWTLMVSVQSALGLAGVLLIDAVIR | failed
2 | MHPLLRRLDLNLLLVFDALYRHRNVGTAASELAISASAFSHALGRLRQGLDDELFLRQGNRMQPTQRAEHLAAAVAAALRALGEGLEEWRPFVPGQSQRTFVFAATDYTAFALLPPLMNRLQHSAPGVRLRLVNAERKLSVEALASGRIDFALGYDEEHERLPEGIQAHDWFADRYVVVARRDHPRLAGAPTLEGYLAERHAVVTPWNEDSGVIDRLLARSGLRREVAVQLPTVLAALFLAGSTDFLLTAPRHAARALAEAAGLALYPAPFDIPPYVLRLYSHVQHVGRDAHAWMIGQLKGLDISRTG | not failed
3 | MHQDVLLGGRYRLGAQLGGGSEAYVNEAWDLLSGKTVAVKIFRSTNSLDNAPFRRELEIHGRLRHRNIVRILDSGDTDSRGDGAGVGQDNRHFVVMELVAGKDLRWILQDKPASPEQTAAWMTDVARALAHVHRRGIVHNDIKPGNILVDFASDPGGPGVAKLADFGIALNGRHGVPNSSSGTPHYLSPEEVCGGTSTTASDIYSLGLVALECLTGTKAFPGPPLESMVARTLGEPRIPGTVRRRWSMVLHAMTDPDPAGRPSASQTVGMLRRLSW | failed
4 | MHRGKETSTKPKKPVTRRKDFSASGKGKKRKKRRVHKMKPWQIALICVGAFIAALLAFGLMYVYAKWSKIDTKSIKADDIIINEEVKKNKNVDLGDGYTNVALFGVDSRDGDLGEGNRTDCIIVASLNNKTKEIKMVSVYRDTLLDLSEGTYQKCNAAYSYGGPVLAINMLNMNLDLDIQDYVTVDFGAIADAVDLLGGIEIEVTEEELPYINQYIPETANSAGKAANLLQSAGLQKLDGTQATTYARIRSTAGGDFTRTERQRLVIEKMFEKAKGADIGTLNKIIDKVFPQVSTSFTLPEILKYASAYSEYKLVGNMGFPEDKYTDMLSEIGSVVVPDNLVSNVTKLHEFLFGITGYVPSSTVQTVGSNISYTASAKKSSGTGSQSSYDSGESYNDSGYTDNSGNYEGGNTGGNYDDGSMSGNSGNTGNSGETGGVGGNGSTGDNTGGTTVEPPVVPDGGTDSGGGQTEAPPEGTVQ | failed
5 | MHRLYRFCLFGMALLSSIAASAAPTDQELIAALYAKVQARQDWQAQARQCPGDNMPARAAIRATQANRCETPEQLGACLQRCEAGDGNDCYWLATTLQQAKGPAEGYEPLYQRACSLGLVSGCTNRAAGMLTADADSQGTRHCAVQTFNKACELDDPWACTMYGFHLSRGIGVAPDADLALKVLDKSCKHGPADPACSGARQLQEDIRNALEAAKR | failed
6 | MHRVHGTLHASFTIECRNMFKRFFLALIGVGILLSESTQASESPPYSMVLLTENFPPFNMAVDGKNFAQENNIDGIAAEVVREMFKRANIGYSMTLRFPWDRVYKLALDKPGYGVFSTTRLPEREKLFKWIGPLGSYDWIMLARGDSPITLASLEQAKDYRIGAYKGDAIGERLNAMGLNPILMLRDRDNVKKLANGQIDLWAVGDPVGRYLAKLEGVSGFKTALRFNSAELYLAVNKSTPDEIVNRLQAALDQMRTEGWVDAVKARYQLEHHHHHH | not failed
7 | MHSDALSWGHGPRLFEVFLEPTCPFSVKAFFKLDDLLAQAGEDNVTVRIRLQSQPWHMFSGVIVRCILAAATLEGGKESAKAVMTAVASHREEFEFEHHAGGPNLDATPNDIIARIERYSGLALAEAFANPELEHAVKWHTKYARQNGIHVSPTFMINGLVQPGMSSGDPVSKWVSDIG | not failed
8 | MHSGLNPQDIAFLKTIIAFFFLSVFLFKVPVSQKIAYISSTPSKLSVFTQIAICAFLGIFSLFFFETIAYNHGAAANVVVVLMASAAISALFFGRLILKESIYINSLIGTLLAVAGISIISWKGENSLLMLINASIAGTGYGLFSVLVKKFKLNGGLFLTKYLLLFGSVYLAVPFLVNLHAIHFNIDIVLGLIGLAVLPTILGFFCTTKALSYMSAAKVQVTELSEPIFAALMAWVFIHEQPTLSFLYGAIFIISGIFVMNRAPKSN | failed
9 | MHSIQSPRLRQHFPRRSPKKLALKKSGGLGHRAKASHCYRIVLYSHDTMGLGHKRRNLLIAQTLQKSRLPVEILVITGIEEGNEALTAAGINYVNLPSLRKNGDGSYSGRDLDLPLEKLIAWRSQLILKTIQQFQPDVLMVDNVPRGVERELDPSLKYLRQRPESLCVLGLRDILDQPGTVQRDWGQADNERAIRRYYDAVWVYGDPQVYDLRHEYGFAPDVTAKMRPLGYFHQGDRLQHLTKPWQETLSNWKLPSRFILGAVGGGQDGETLAIAFAQIPFTADLPGVLLTGPFMPESVRQKLKVSAQNNPDLTILPYFSEPTMLMWAAERVITMGGYNTTCEILSFQKPALIIPRIKPRQEQWLRATRLKQLGLVDVLHPDQVNAQNLTAWLHSAPTNQYNKPVLNLRATQQLPLVLGQLLSTRNCFMSQAC | failed
10 | MHSNINTLIANHRAGHALDQAFYTDAEVFQTDLQEIFYKEWLFAIPACELDKPGSYVTHQVGNYNVIIVRGADNVIRAFHNACRHRGSVICKAKKGNNPKLVCPYHQWTYELDGRLLWARDMGPDFEPSRHGLKTVHCRELAGLIYICLADEAPDFERFAEVARPYLEVHDLSNAKVAHESSIVERGNWKLVWENNRECYHCGGNHPALCRTFPDDPSVTGIEGGETPSNLQAHFDRCEQAGMPSGFHLSGDGQFRVARMPLKEGAESYTMDGKTAVRRWLGRAAFADAGSLLKFHYPTTWNHFLSDHSIVFRVTPISPTETEVTTKWLVHKDAVEGVDYDLQRLTEVWIATNDEDREVVEFNQMGINSPAYEPGPYSPTQESGVLQFVEWYLSTLKRNSGPHAVAAE | not failed
11 | MHSTIGRLLEQTADAYPDRDAVVYPDRNIRYTYAQFDSLCRQTAKGLMRMGIGKGDHVAIWASNISEWLAVQFATAKIGAVLVTVNTNYQAHELDYLLKQSDAAALIIMDSYRGTSYPDIVNSLIPELQEAKPGQLKSERYPFLKTLIYIGNKRLSGMYHWDDTEILAKTVTDAELEERMNSLDKDNVINMQYTSGTTGFPKGVMLTHFNVINNAANIAECMALTSQDRMCIPVPFFHCFGCVLGVLACVSVGAAMIPVQEFDPVTVLKTVEKEKCTVLHGVPTMFIAELHHPDFDAYDLSTLRTGIMAGSPCPSEVMKAVIERMGMKDITIAYGQTEASPVITQTRANDSFIRRVETTGRALPHTEVKIVEPGTCQEVQRGMQGELCTRGYHVMKGYYKDKDATRKAINHDGWLFTGDLAVMDEDGYCRITGRLKDMLIRGGENIYPREIEEFLYQHPAVLDVQVVGVPDAKFGEEAAAWIKLKDGKSVSPDELKAYCKGKIARHKIPRYVIFTDDYPMTAS | failed
12 | MHTAICDELGIEFPIFAFTHCRDVVVAVSKAGGFGVLGAVGFTPEQLEIELNWIDEHIGDHPYGVDIVIPNKYEGMDSQLSADELAKTLRSMVPQEHLDFARKILADHGVPVEDADEDSLQLLGWTEATATPQVDAALKHPKMTMVANALGTPPADMIKHIHDSGRKVAALCGSPSQARKHADAGVDIIIAQGGEAGGHCGEVGSIVLWPQVVKEVAPVPVLAAGGIGSGQQIAAALALGTQGAWTGSQWLMVEEAANTAVQQAAYVKATSRDTVRSRSFTGKPARMLRNDWTEAWEQPESPKPLGMPLQYMVSGMAVKATHKYPNETVDVAFNPVGQVVGQFTKVEKTATVIERWVQEYLEATARLDALNAAASV | failed
13 | MHVALNQTMPDDVQGTVATIYTSSEQLQLFAFEAEVNENFEMAAAYYKERLVREPQNLDHWLDYGAFCLLTEDNIKAQECFQKALSLNQSHIHSLLLCGVLAVLLENYEQAEIFFEDATCLEPTNVVAWTLLGLYYEIQNNDIRMEMAFHEASKQLQARMLQAQVTKQKSTGVEDTEERGKRESSLGPWGITNGSATAIKVEAPAGPGAALSILDKFLEESSKLQSDSQEPILTTQTWDPSISQKPSNTFIKEIPTKKEASKCQDSSALLHPGLHYGVSQTTTIFMETIHFLMKVKAVQYVHRVLAHELLCPQGGPSCEYYLVLAQTHILKKNFAKAEEYLQQAAQMDYLNPNVWGLKGHLYFLSGNHSEAKACYERTISFVVDASEMHFIFLRLGLIYLEEKELEELTEAEDALSEANALNNYNAEVWAYLALVCLKVGRQLEAEQAYKYMIKLKLKDEALLAEIHTLQETVGFGNPSF | failed
14 | MHVAVRRSNTPHPLSSLRHDIVIEPLEEERPPSRFGYDMAGKALSVQPTIDPSAKLHETRLGAYTEVGARTILHEVTMGDYSYVVNDSQITYTTIGKFCSIAAMTRINPGNHPMHRATQAHFTYRSSAYFPGESDDTEFFDWRRQHHVHIGHDVWIGHGAIVLPGRNIGTGAVIAAGAIVTKDVPAYTIVAGNPARIVRRRFSEEIAGRLARLAWWDWDHDKLREALPDFRRLGIEDFLSTYEARAHSPVSKRSAVA | failed
15 | MHVISTSKKTVLSDFADLETKSEYVHQNAEPTDFQFNGQRRVFVEVDKMAGLAVMRIKEKDGKTPEIQRVRKLTIDNAFCVACAKQSLEEIAVGQSGCVKLYNFRTAQLIHRFPADPQRSTVLYMDYNNTDEYIAAVRDGGDISILGTKTKQKTNTFTIDGDSTLVRFHPSKRFHLSIASYKGAVTVYDVQGMRKIFHASEAHSAPCRDISMCTSQPALLVSVGYDCKINIFDIRRNRAQASTDRLTYSHPLSTVALSECGTYLCAGNLKGELIAYDMRSTKAPLAVRSVHDAAVTRVAFVPVPSGDNQQNGSLNSSENATGLATEAPRVERAPSDELRKSIAANLLSTQNQLTSLGYGVSTPTIVRRDSFCEFLDAQGPRAVDRMSTRLGASYRDSFDWETLNRKPQPYETANRQSLCPPVASGPSSVDNSVNSSTTESLQQTLSGPLKDRSNISGDGKLMKIAETDELCEEQSANISVASSTGGGSDKENPPPVDAEMKRRLRLLSASRNSTPHHANITPQSSNPLLKPQQLLAKSSSGLSAQMDADWRKEFSELRDFVDQRCEKVERELEYVTFSNQRLLANKMTNYMDQQVENTREIRDALALLLQGDSFMREFSRLQNENEMLKAKLKFYQEQEQTESCGE | failed
16 | MHVPIRLLEWFKVEQTLVIQKKKRFGFSQGIGITLLIAIVAKYLAELPFLNIMGQLVIAILIGMVWRAAIGVPHDAIAGTNFASKKLLRFGIILLGMRLNLVDIAKAGPKVLVIAAVVITFTIFVVYGLTKVFKVEKKLGILTACGTAICGAAAVVAIAPQVKAKDDETAVGAAIIAILGTIFTLIYTLLYPVLGLSPYGYGVFSGATLHEIAHVIAAAAPGGSAAVDIAVIVKLTRVAMLVPVAILIGLWFGKSEGSKEKRSWRDLPIPWFIFGFLAMSAVHSLGIIPEVVAGYIVVIAYMLIAMAMAGLGLNVEFKTFRKLGSKAFVAGLIGSVCLSVLGYVLVYALGFM | failed
17 | MHVSSGRWVYGLFLALLTALLWGILPIKLKQVLQVMDPVTVTWFRLTVSGGCLLAYLAAVGRLPRWRVLGPKGIWLVPISVCGLVGNYVLYLMGLNLLSPGTAQLVVQMGPILLLIASLFVFKERFSLGQGLGLLVLLIGFGLFFNQRLSELLTSLSDYTAGVLTILAASAVWTFYALGQKQLLSVWNSLQVMMVIYLFCALLLTPWAHPLEALEVNPLQGWLLLGCCLNTLIAYGAFAEALAHWEASRVSATLAITPLVTFVAVAWAAWLWPEYVQAEQINGLGYGGALLVVLGSALTALGPSLMAGLRARRQRIAAG | failed
18 | MHVYESDVSWIDDRRTEVSVGDHRIEVDSPPEFGGPEGQLYPETLFPSVLASCLLTTFLEFKDRMGINLKSWNSHVTAELGPSPEKGFKFHRIKIHVKIGVNDEDKEKIPRAMQLAEKYCFISRAIRNNVEEIVDYEFV | not failed
